Changes are numbered by the printed parent chain. One block for each molecule: values may come before it.
How the values were obtained:
LRP6 E1E2 = target: T1, LRP6 E1E2 (Homo sapiens, UniProt O75581); experiment: Competition phage ELISA, peptide affinity for LRP6 E1E2; format: binding; conditions: relative to Dkk1 peptide
T1 construct: construct E1E2-amino acids A20-E631 of LPR6; made in house; host or cells: Tni insect cells (baculovirus, secreted)
T1 sequence (O75581 20-631): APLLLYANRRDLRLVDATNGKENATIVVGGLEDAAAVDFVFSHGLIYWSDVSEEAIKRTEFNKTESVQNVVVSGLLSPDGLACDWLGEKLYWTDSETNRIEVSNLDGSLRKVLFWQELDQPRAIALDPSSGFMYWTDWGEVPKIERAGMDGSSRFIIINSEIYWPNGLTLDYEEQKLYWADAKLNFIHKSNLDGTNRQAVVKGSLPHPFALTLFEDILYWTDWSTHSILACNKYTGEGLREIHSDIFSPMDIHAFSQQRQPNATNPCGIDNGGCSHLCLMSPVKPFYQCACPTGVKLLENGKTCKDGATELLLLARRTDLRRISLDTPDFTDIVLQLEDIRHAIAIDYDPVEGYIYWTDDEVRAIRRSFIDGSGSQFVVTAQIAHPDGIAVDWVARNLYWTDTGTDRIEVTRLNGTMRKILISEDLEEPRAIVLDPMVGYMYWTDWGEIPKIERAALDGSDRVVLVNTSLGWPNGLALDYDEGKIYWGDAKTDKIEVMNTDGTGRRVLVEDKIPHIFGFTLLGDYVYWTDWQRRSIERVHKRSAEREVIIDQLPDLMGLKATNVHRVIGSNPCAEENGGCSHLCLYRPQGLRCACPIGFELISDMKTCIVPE
Description: Peptide affinities were also determined by competition with phage displaying a binding peptide (competition phage ELISA). Serial dilutions of test peptide were mixed with an appropriate (non-saturating) concentration of phage before exposing the mixture to target and allowing it to reach equilibrium. After washing to remove unbound material, bound phage were detected by incubation with anti-M13 antibody-horseradish peroxidase (HRP) conjugate and exposure to a suitable colorometric HRP substrate.
Seven-residue peptides from Dkk1 and Sost were synthesized by standard Fmoc procedures. FIG. 7B. These peptides include the “NXI” motif described above. Affinities of the peptides for LRP6 E1E2 were determined by competition phage ELISA (41). […] To understand the detailed interactions of the peptides with LRP6, we determined high-resolution co-crystal structures of the peptides bound to the LRP6 E1 β-propeller. Structures were determined by molecular replacement and refined to 1.9 and 1.5 Å resolution for Dkk1 and Sost peptides, respectively (FIG. 8). Remarkably, the peptides show very similar bound-state conformations compared to the antibody loop, in each case placing the key asparagine side chain in position for the “handshake” interaction described above. Peptide isoleucine residues occupy the hydrophobic pocket where the valine side chain of the antibody loop interacts. […]

LRP6 E1E2 Asn185Ser = target: T2, LRP6 E1E2 Asn185Ser (human, UniProt O75581 20-631); experiment: BLI steady-state affinity
T2 construct: range 20-631; also called LRP6 E1E2 N185S (analogue of LRP5 BMD mutation Asn198Ser)
T2 sequence (looked up): T1 sequence (O75581 20-631) with N166S
Description: (§1) Binding kinetics were measured by biolayer interferometry using an Octet Red instrument (ForteBio) as previously described (11). Streptavidin (SA) biosensors were loaded with biotinylated hLRP6 in 50 mMTris, pH 8, 300 mM NaCl, 5% (v/v) glycerol, and 0.05% (w/v) Triton X-100. The loaded biosensors were washed in the same buffer before carrying out association and dissociation measurements for the indicated times. The Kd of each interaction was determined using steady state-analysis through the Octet Red software v6.3. Each reported value represents an average of three or more experiments at different concentrations, with a fitted experimental curve for which the square of the correlation coefficient (R²) is above 0.96.

LRP6 E1E2 Arg141Met = target: T3, LRP6 E1E2 Arg141Met (human, UniProt O75581 20-631); experiment: BLI steady-state affinity
T3 construct: range 20-631; also called LRP6 E1E2 R141M
T3 sequence (looked up): T1 sequence (O75581 20-631) with R122M
Description: as §1

[1] = target: T4, human LRP6 construct E3E4 (amino acids E631-Q1253) (human, UniProt O75581 631-1253, biotinylated for biolayer interferometry); experiment: BLI, biotinylated LRP6 on streptavidin tips
T4 construct: range 631-1253; also called LRP6 E3E4
T4 sequence (looked up): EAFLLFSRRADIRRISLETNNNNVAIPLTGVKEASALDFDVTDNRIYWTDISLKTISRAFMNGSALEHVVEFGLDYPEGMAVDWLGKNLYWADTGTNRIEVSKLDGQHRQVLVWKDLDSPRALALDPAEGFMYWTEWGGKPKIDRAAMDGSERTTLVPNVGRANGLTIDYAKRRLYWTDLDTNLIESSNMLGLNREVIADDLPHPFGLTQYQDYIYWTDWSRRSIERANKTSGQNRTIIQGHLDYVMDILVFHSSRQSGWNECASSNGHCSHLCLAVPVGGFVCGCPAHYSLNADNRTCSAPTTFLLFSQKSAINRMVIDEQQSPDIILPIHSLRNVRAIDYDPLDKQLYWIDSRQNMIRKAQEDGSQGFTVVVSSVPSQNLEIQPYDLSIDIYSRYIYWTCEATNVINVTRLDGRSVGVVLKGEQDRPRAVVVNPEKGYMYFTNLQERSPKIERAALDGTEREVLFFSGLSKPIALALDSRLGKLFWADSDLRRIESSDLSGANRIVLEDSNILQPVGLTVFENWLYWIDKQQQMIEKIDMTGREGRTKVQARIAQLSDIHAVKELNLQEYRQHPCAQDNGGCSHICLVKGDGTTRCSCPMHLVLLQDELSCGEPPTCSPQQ
Description: as §1
(§2) Purified receptors contained individual β-propeller-EGF-like units (E1, E2, or E4), two β-propellers (E1E2 or E3E4), or four β-propellers (E1E4))—as follows: […]

[2] = target: T5, human LRP6 construct E4 (T933-Q1253) (human, UniProt O75581 933-1253, biotinylated for biolayer interferometry); experiment: BLI, biotinylated LRP6 on streptavidin tips
T5 construct: range 933-1253; also called LRP6 E4
T5 sequence (looked up): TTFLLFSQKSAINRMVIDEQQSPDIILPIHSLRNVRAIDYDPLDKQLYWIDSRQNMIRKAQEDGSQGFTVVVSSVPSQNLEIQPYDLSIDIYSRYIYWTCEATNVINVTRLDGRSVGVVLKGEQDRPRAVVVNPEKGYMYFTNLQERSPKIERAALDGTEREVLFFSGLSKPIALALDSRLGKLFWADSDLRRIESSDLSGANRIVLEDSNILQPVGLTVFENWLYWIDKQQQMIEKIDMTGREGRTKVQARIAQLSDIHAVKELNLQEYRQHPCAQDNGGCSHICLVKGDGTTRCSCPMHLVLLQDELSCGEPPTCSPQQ
Description: as §1, §2

binds more weakly than the Dkk1 peptide (LRP6 E1E2): about 10 fold
Molecule: Ac-LPNAIGR-NH2 (N-terminus and C-terminus assumed) [sclerostin peptide]

fold loss in affinity against wild-type LRP6 E1E2 (LRP6 E1E2 Asn185Ser): 59 fold
fold loss in affinity against wild-type LRP6 E1E2 (LRP6 E1E2 Arg141Met): 31 fold
binding result [1]: no binding
binding result [2]: no binding
B1: Sclerostin (wild type) (ligand, UniProt Q9BQB4 24-213, looked up)
chain: QGWQAFKNDATEIIPELGEYPEPPPELENNKTMNRAENGGRPPHHPFETKDVSEYSCRELHFTRYVTDGPCRSAKPVTELVCSGQCGPARLLPNAIGRGKWWRPSGPDFRCIPDRYRAQRVQLLCPGGEAPRARKVRLVASCKCKRLTRFHNQSELKDFGTEAARPQKGRKPRPRARSAKANQAELENAY
notes: also called SOST; Sost

— patent US20140235820A1, “METHODS AND COMPOSITIONS FOR MODULATING THE Wnt PATHWAY” (Genentech, Inc., priority 2010, published 2014)
